{
  "source": "the nanobody polyreactivity screen of Harvey et al. (2022)",
  "assay": "yeast display, Sf9 membrane polyspecificity reagent, FACS + sequencing; frameworks hold sequencing errors",
  "procedure,_shortened": "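Using colony PCR, genes from sorted yeast display clones were amplified, then sequenced on MiSeq at 2 × 250 and filtered by CDR length. The clones had been stained with 10% biotinylated, detergent-solubilized Sf9 membrane reagent for 1 hour at 4 °C and sorted by FACS into low and high (top ~1%) gates on anti-HA and streptavidin fluorescence. Polyreactivity labels come from the gate of origin.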",
  "data": [
    {"sequence": "QVQLVESGGGLVQAGGSLRLSCAASGSTFFHYPMGWYIQATGKERELVAAISWSGGRTSYADSVKGRFTISRDNAKNTVYLQKNSLKPEDTAVYYCAARGRYKDVYRMDYWGQGTQVTVSS", "values": [
      {"measurement": "polyreactivity (PSR sort gate)", "value": "high polyreactivity"}
    ]},
    {"sequence": "QVQLVESGGGLVQAGGSLRLSCAASGSTFFIYAMGWYRPAPGKERELVAAISWRDGSTYYADSVKGRFTISRDNAKNTVYLQMNSLKPEDTAVYYCAADYLLPWGIELDYWGQGTQVTVSS", "values": [
      {"measurement": "polyreactivity (PSR sort gate)", "value": "high polyreactivity"}
    ]},
    {"sequence": "QVQLVESGGGLVQAGGSLRLSCAASGSTFFKYGMGWYRQAPGKERELVATISSRGGNTSYADSVKGRFTISRDNAKNTVYLLMNSLKPEVTAVYLCNAKLVYVGDTTTWGQGTQVTVSS", "values": [
      {"measurement": "polyreactivity (PSR sort gate)", "value": "low polyreactivity"}
    ]},
    {"sequence": "QVQLVESGGGLVQAGGSLRLSCAASGSTFFLYAMGWYIQAPGKERELVAAISGSGGTTYYADSVKGRFTISRDNAKNTVYLQMNSLKPEDTAVYYCNKDYYPGSYDYWGQGTQVTVSS", "values": [
      {"measurement": "polyreactivity (PSR sort gate)", "value": "low polyreactivity"}
    ]},
    {"sequence": "QVQLVESGGGLVQAGGSLRLSCAASGSTFFPNAMGWYRQAPGKERELVAAIRWRGGTYYADSVKVRFTISRDNAKNTVYLQMNSLKPEDTAVYYCATSVKPSYDYWGQGTQVTVSS", "values": [
      {"measurement": "polyreactivity (PSR sort gate)", "value": "low polyreactivity"}
    ]},
    {"sequence": "QVQLVESGGGLVQAGGSLRLSCAASGSTFFPNGMGWYRQARGKEWELVAAITQDGGSTYYADSVKGRFTISRDNAKNTVYLQMNSLNPEDTAVYYCAASAGPYYEYGYWGQGTQVTVSS", "values": [
      {"measurement": "polyreactivity (PSR sort gate)", "value": "low polyreactivity"}
    ]},
    {"sequence": "QVQLVESGGGLVQAGGSLRLSCAASGSTFFPYAMGWYRQAPGKERELVAGISSDGGTSYADSVKGRFTISRDNAKNTVYLQMNSLKPEDTAVYYCAALQADRDRYPAFDLMDYWGQGTQVTVSS", "values": [
      {"measurement": "polyreactivity (PSR sort gate)", "value": "low polyreactivity"}
    ]},
    {"sequence": "QVQLVESGGGLVQAGGSLRLSCAASGSTFFRNAMGWYRQAPGKDRELVAAISSSGGRTYYADSVKGRFTISRDNAKNTVYLQMNSLKPVETAVYYCAVVSSHYKGPGRNGYDYWAQGTQVTVSS", "values": [
      {"measurement": "polyreactivity (PSR sort gate)", "value": "high polyreactivity"}
    ]},
    {"sequence": "QVQLVESGGGLVQAGGSLRLSCAASGSTFFRNAMGWYRQAPGKERELVAAISKSGTSTYYADSVKGRFTISRDNAKNTVYLQMNSLKPEDTAVYYCAKYGFSYPQSYAYYYWGQGTQVTVSS", "values": [
      {"measurement": "polyreactivity (PSR sort gate)", "value": "high polyreactivity"}
    ]},
    {"sequence": "QVQLVESGGGLVQAGGSLRLSCAASGSTFFRYAMGWYRHAPVKERELVAAISASGGRTYYADSVKGRFTISRDNAKNTVYLLMNSLKPEDTAVYYCNRQYGPYQYYYWGQGTQVTVSS", "values": [
      {"measurement": "polyreactivity (PSR sort gate)", "value": "high polyreactivity"}
    ]},
    {"sequence": "QVQLVESGGGLVQAGGSLRLSCAASGSTFFRYAMGWYRQAPGKERELVAAITTSGGNTYYADSVKGRFTISRDNAKNTVYLQMNSLKPEDTAVYYCNVLRGFPRYYYWGQGTQVTVSS", "values": [
      {"measurement": "polyreactivity (PSR sort gate)", "value": "high polyreactivity"}
    ]},
    {"sequence": "QVQLVESGGGLVQAGGSLRLSCAASGSTFFRYARGWYIQAPGKEREFVAAISKRGGSTHYADSVKGRFTISRDNAKKTVYLQMNSLKPADTAVYYCAASSFTSSYNYWGQGTQVTVSS", "values": [
      {"measurement": "polyreactivity (PSR sort gate)", "value": "high polyreactivity"}
    ]},
    {"sequence": "QVQLVESGGGLVQAGGSLRLSCAASGSTFFSYAMGWYRQAPGKERDLVAAITSNGGTTHYADSVKGRFTISRDNAKNTVYLQMNSLKPEDTADYYCAKAQGHVRGSRGLQGGRYDYWGQGTQVTVSS", "values": [
      {"measurement": "polyreactivity (PSR sort gate)", "value": "low polyreactivity"}
    ]},
    {"sequence": "QVQLVESGGGLVQAGGSLRLSCAASGSTFFSYAMGWYRQAPGKERELVAAISWIDDGTYYADSVKGRFTISRDNAKNTVYLQMNSLKPEDTAVYYCAADIGAYRTWDYEYWGQGTQVTVSS", "values": [
      {"measurement": "polyreactivity (PSR sort gate)", "value": "low polyreactivity"}
    ]},
    {"sequence": "QVQLVESGGGLVQAGGSLRLSCAASGSTFFSYAMGWYRQAPGKERELVAVITGSDGRTFYADSVKGRFTISRDNAKNTVYLQMNSLKPEDTAVYYCAADAVFRATRYDRSTSEDDYWGQGTQVTVSS", "values": [
      {"measurement": "polyreactivity (PSR sort gate)", "value": "low polyreactivity"}
    ]},
    {"sequence": "QVQLVESGGGLVQAGGSLRLSCAASGSTFFTNTMGWYRQAPGKERELVAAISKSGGSTYYADSVKGRFTISRDNAKNTVYLQMNSLKPEDTAVYYCAASDRYGGRDYWGQGTQVTVSS", "values": [
      {"measurement": "polyreactivity (PSR sort gate)", "value": "high polyreactivity"}
    ]},
    {"sequence": "QVQLVESGGGLVQAGGSLRLSCAASGSTFFVYAMGWYRQSPGKERELVADITNSGGNTYYADSVKGRFTISRDNAKNTVFLQMISLKPEDTAVYYCSGEYWFTSYDSWGQGTQVTVSS", "values": [
      {"measurement": "polyreactivity (PSR sort gate)", "value": "high polyreactivity"}
    ]}
  ]
}
